Assay results as given in patent US20220177587A1, “METHODS AND USES OF VARIANT CD80 FUSION PROTEINS AND RELATED CONSTRUCTS” (Alpine Immune Sciences, Inc., priority 2018, published 2022).
Changes are numbered by the printed parent chain. Names and notes keep the numbering of the source.

B1: E35D/M47I/Y87Q/K89E (protein, UniProt P33681 35-288, looked up, variant E35D M47I Y87Q K89E)
T-lymphocyte activation …: VIHVTKEVKEVATLSCGHNVSVEELAQTRIYWQKDKKMVLTMMSGDINIWPEYKNRTIFDITNNLSIVILALRPSDEGTYECVVLKQEEDAFKREHLAEVTLSVKADFPTPSISDFEIPTSNIRRIICSTSGGFPEPHLSWLENGEELNAINTTVSQDPETELYAVSSKLDFNMTTNHSFMCLIKYGHLRVNQTFNWNTTKQEHFPDNLLPSWAITLISVNGIFVICCLTYCFAPRCRERRRNERLRRESVRPV
B2: H18Y/E35D/N48K (protein, UniProt P33681 35-288, looked up, variant H18Y E35D N48K)
T-lymphocyte activation …: B1 T-lymphocyte activation … with H18Y, I47M, N48K, Q87Y, E89K
B3: E35D/M47V/A71G (protein, UniProt P33681 35-288, looked up, variant E35D M47V A71G)
T-lymphocyte activation …: B1 T-lymphocyte activation … with I47V, A71G, Q87Y, E89K
B4: Q27H/E35D/D46V/M47L/A71G (protein, UniProt P33681 35-288, looked up, variant Q27H E35D D46V M47L A71G)
T-lymphocyte activation …: B1 T-lymphocyte activation … with Q27H, D46V, I47L, A71G, Q87Y, E89K
B5: E35D/D46E/M47V/A71D (protein, UniProt P33681 35-288, looked up, variant E35D D46E M47V A71D)
T-lymphocyte activation …: B1 T-lymphocyte activation … with D46E, I47V, A71D, Q87Y, E89K
B6: E35D/M47V/A71G/E88D (protein, UniProt P33681 35-288, looked up, variant E35D M47V A71G E88D)
T-lymphocyte activation …: B1 T-lymphocyte activation … with I47V, A71G, Q87Y, E88D, E89K
B7: E35D/M47V/N48T/L85Q (protein, UniProt P33681 35-288, looked up, variant E35D M47V N48T L85Q)
T-lymphocyte activation …: B1 T-lymphocyte activation … with I47V, N48T, L85Q, Q87Y, E89K
B8: E35D/T41S/M43I/M47L/A71G (protein, UniProt P33681 35-288, looked up, variant E35D T41S M43I M47L A71G)
T-lymphocyte activation …: B1 T-lymphocyte activation … with T41S, M43I, I47L, A71G, Q87Y, E89K
B9: Q33R/E35D/M47V/N48K/L85M/F92L (protein, UniProt P33681 35-288, looked up, variant Q33R E35D M47V N48K L85M F92L)
T-lymphocyte activation …: B1 T-lymphocyte activation … with Q33R, I47V, N48K, L85M, Q87Y, E89K, F92L
modifications: Fc fusion
B10: E35D/M38T/M43V/M47V/N48R/L85Q (protein, UniProt P33681 35-288, looked up, variant E35D M38T M43V M47V N48R L85Q)
T-lymphocyte activation …: B1 T-lymphocyte activation … with M38T, M43V, I47V, N48R, L85Q, Q87Y, E89K
modifications: Fc fusion
B11: E35D/M43I/M47V/K89N (protein, UniProt P33681 35-288, looked up, variant E35D M43I M47V K89N)
T-lymphocyte activation …: B1 T-lymphocyte activation … with M43I, I47V, Q87Y, E89N
B12: E35D/M38T/D46E/M47V/N48S (protein, UniProt P33681 35-288, looked up, variant E35D M38T D46E M47V N48S)
T-lymphocyte activation …: B1 T-lymphocyte activation … with M38T, D46E, I47V, N48S, Q87Y, E89K
B13: E35D/A71G (protein, UniProt P33681 35-288, looked up, variant E35D A71G)
T-lymphocyte activation …: B1 T-lymphocyte activation … with I47M, A71G, Q87Y, E89K
B14: E35D/T41S/M47V/A71G/K89N (protein, UniProt P33681 35-288, looked up, variant E35D T41S M47V A71G K89N)
T-lymphocyte activation …: B1 T-lymphocyte activation … with T41S, I47V, A71G, Q87Y, E89N
B15: E35D/L85Q/K93T/E95V/L97Q (protein, UniProt P33681 35-288, looked up, variant E35D L85Q K93T E95V L97Q)
T-lymphocyte activation …: B1 T-lymphocyte activation … with I47M, L85Q, Q87Y, E89K, K93T, E95V, L97Q
B16: I30V/E35D/M47V/A71G/A91V (protein, UniProt P33681 35-288, looked up, variant I30V E35D M47V A71G A91V)
T-lymphocyte activation …: B1 T-lymphocyte activation … with I30V, I47V, A71G, Q87Y, E89K, A91V
B17: E35D/M47L/A71G/L85Q (protein, UniProt P33681 35-288, looked up, variant E35D M47L A71G L85Q)
T-lymphocyte activation …: B1 T-lymphocyte activation … with I47L, A71G, L85Q, Q87Y, E89K
B18: E35D/A71D/L72V/R73H/E81K (protein, UniProt P33681 35-288, looked up, variant E35D A71D L72V R73H E81K)
T-lymphocyte activation …: B1 T-lymphocyte activation … with I47M, A71D, L72V, R73H, E81K, Q87Y, E89K
B19: V22D/E35D/M47L/L85Q (protein)
chain: VIHVTKEVKEVATLSCGHNVSDEELAQTRIYWQKDKKMVLTMMSGDLNIWPEYKNRTIFDITNNLSIVILALRPSDEGTYECVVQKYEKDAFKREHLAEVTLSVKADFPTPSISDFETPTSNIRRIICSTSGGFPEPHLSWLENGEELNAINTTVSQDPETELYAVSSKLDFNMTTNHSFMCLIKYGHLRVNQTFNWNTTKQEHFPDN
modifications: CD80 v261 ECD
B20: T28Y/Q33H/E35D/D46V/M47I/A71G (protein)
chain: B19 chain with D22V, T28Y, Q33H, D46V, L47I, A71G, Q85L
modifications: CD80 v291 ECD
B21: V22D/E35D/M47L/L70M/L97Q (protein)
chain: B19 chain with L70M, Q85L, L97Q
modifications: CD80 v283 ECD
B22: H18Y/E35DN68M/L97Q (protein)
chain: VIHVTKEVKEVATLSCGYNVSVEELAQTRIYWQKDKKMVLTMMSGDMNIWPEYKNRTIFDITNNLSIMILALRPSDEGTYECVVLKYEKDAFKREHQAEVTLSVKADEPKSSDKTHTCPPCPAPEAEGAPSVFLFPPKPKDTLMISRTPEVTCVVVDVSHEDPEVKFNWYVDGVEVHNAKTKPREEQYNSTYRVVSVLTVLHQDWLNGKEYKCKVSNKALPAPIEKTISKAKGQPREPQVYTLPPSREEMTKNQVSLTCLVKGFYPSDIAVEWESNGQPENNYKTTPPVLDSDGSFFLYSKLTVDKSRWQQGNVFSCSVMHEALHNHYTQKSLSLSPG

What was measured:
CD28 [1] = target: T1, CD28 (Homo sapiens, UniProt P10747); assay: Flow binding to Jurkat/IL2 reporter cells (CD28); design: host or cells: Jurkat cells expressing an IL-2-luciferase reporter; settings: Table E4; 33.3 nM; Jurkat cells (CD28)
Method in brief: (§1)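 Cells were first blocked in PBS with 1% BSA and 0.1% sodium azide. Primary staining with fusion protein ran 45 min on ice, and secondary staining with PE anti-human Fc at 1:150 ran 30 min on ice.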

CD28 [2] = target: T1, CD28; assay: Jurkat/IL2 + K562/OKT3/PD-L1 reporter assay; format: cell-based; design: host or cells: Jurkat cells expressing an IL-2-luciferase reporter; settings: K562/OKT3/PD-L1 aAPC, 50 nM; for Relative Luciferase Units (RLU), CD80-Fe Cone 50 nM / Fold Increase over WT CD80-IgV-Fe: Table E8
huPD-L1 = huPD-L1 (Homo sapiens, UniProt Q9NZQ7); assay: Flow binding to CHO cells stably expressing PD-L1; design: huCTLA4 and huPD-L1, full-length mammalian surface expression constructs were generated; expressed in transfected cells; host or cells: CHO cells, lentiviral transduction, sorted to >98% purity; settings: Table E4; 33.3 nM; CHO cells stably expressing PD-L1
huPD-L1, sequence (Q9NZQ7 19-290): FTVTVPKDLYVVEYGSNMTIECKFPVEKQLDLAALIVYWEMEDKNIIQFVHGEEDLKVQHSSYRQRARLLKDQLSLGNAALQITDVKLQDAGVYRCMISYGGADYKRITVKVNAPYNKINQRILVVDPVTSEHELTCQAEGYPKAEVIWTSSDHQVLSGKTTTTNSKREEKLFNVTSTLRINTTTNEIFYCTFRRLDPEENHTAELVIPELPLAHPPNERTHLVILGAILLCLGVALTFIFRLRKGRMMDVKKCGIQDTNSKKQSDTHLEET
Method in brief: as §1

huCTLA4 = huCTLA4 (Homo sapiens, UniProt P16410); assay: Flow binding to CHO cells stably expressing CTLA4; design: huCTLA4 and huPD-L1, full-length mammalian surface expression constructs were generated; expressed in transfected cells; host or cells: CHO cells, lentiviral transduction, sorted to >98% purity; settings: Table E4; 33.3 nM variant CD80 IgV-Fc; CHO cells stably expressing CTLA4
huCTLA4, sequence (P16410 36-223): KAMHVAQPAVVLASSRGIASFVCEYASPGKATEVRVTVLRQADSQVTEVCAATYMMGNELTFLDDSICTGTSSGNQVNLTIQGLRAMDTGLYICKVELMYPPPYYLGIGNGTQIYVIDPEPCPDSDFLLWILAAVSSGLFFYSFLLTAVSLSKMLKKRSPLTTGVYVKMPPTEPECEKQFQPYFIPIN
Method in brief: as §1

| Molecule | Relative Luciferase Units (RLU), CD80-Fe Cone 50 nM (CD28 [2]) | further results |
| --- | --- | --- |
| B1 | 1581 RLU | CD28 MFI at 33.3 nM (CD28 [1]): 15452; PD-L1 MFI at 33.3 nM (huPD-L1): 29803 |
| B2 | 1230 RLU |  |
| B3 | 1190 RLU | CD28 MFI at 33.3 nM (CD28 [1]): 6360; PD-L1 MFI at 33.3 nM (huPD-L1): 36216 |
| B4 | 978 RLU |  |
| B5 | 683 RLU |  |
| B6 | 1216 RLU | CD28 MFI at 33.3 nM (CD28 [1]): 6237; PD-L1 MFI at 33.3 nM (huPD-L1): 37146 |
| B7 | 897 RLU | Fold Increase over WT CD80-IgV-Fe (CD28 [2]): 4.4 |
| B8 | 1535 RLU | CTLA4 MFI at 33.3 nM (huCTLA4): 209034 |
| B9 | 215 RLU | CTLA4 MFI at 33.3 nM (huCTLA4): 2680 |
| B10 | 680 RLU | Fold Increase over WT CD80-IgV-Fe (CD28 [2]): 3.3 |
| B11 | 1094 RLU | CTLA4 MFI at 33.3 nM (huCTLA4): 278391; PD-L1 MFI at 33.3 nM (huPD-L1): 19250 |
| B12 | 1315 RLU |  |
| B13 | 1190 RLU | CTLA4 MFI at 33.3 nM (huCTLA4): 184204; PD-L1 MFI at 33.3 nM (huPD-L1): 34149 |
| B14 | 1023 RLU |  |
| B15 | 315 RLU | Fold Increase over WT CD80-IgV-Fe (CD28 [2]): 1.5 |
| B16 | 1503 RLU | CTLA4 MFI at 33.3 nM (huCTLA4): 204756 |
| B17 | 1256 RLU | CD28 MFI at 33.3 nM (CD28 [1]): 1436 |
| B18 | 282 RLU |  |
| B19 | 1142 RLU | CD28 MFI at 33.3 nM (CD28 [1]): 542 |
| B20 | 580 RLU | Fold Increase over WT CD80-IgV-Fe (CD28 [2]): 2.8 |
| B21 | 1542 RLU |  |
| B22 |  | Fold Increase over WT CD80-IgV-Fc (CD28 [2]; Table E7): 7.7; Relative Luciferase Units (RLU), CD80-Fc Conc. 50 nM (CD28 [2]; Table E7): 4336 RLU |
